Laboratory results: PMC7380067
Numbering of substitutions follows the chain as printed.

Experiments:
[1] = biological target: T1, AgrR-His6 (Cupriavidus metallidurans NA4) (UniProt Q1LMJ6); test: EMSA; conditions: 25 mM Na2HPO4, 150 mM NaCl, 0.1 mM EDTA, 2 mM MgCl2, 1 mM DTT, 10% glycerol, pH 7.0, 22 C, about 0.1 nM probe, 25 ug/ml sonicated salmon sperm DNA
T1 sequence: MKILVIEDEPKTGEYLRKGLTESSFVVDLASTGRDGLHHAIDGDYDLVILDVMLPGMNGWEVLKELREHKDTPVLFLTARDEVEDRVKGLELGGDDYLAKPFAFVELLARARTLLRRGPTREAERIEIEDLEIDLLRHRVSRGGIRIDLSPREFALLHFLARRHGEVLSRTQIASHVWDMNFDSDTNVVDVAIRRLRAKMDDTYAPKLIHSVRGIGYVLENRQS

[2] = biological target: T1, AgrR-His6 (Cupriavidus metallidurans NA4); test: in gel (OP)2-Cu+ footprinting; conditions: 25 mM Na2HPO4, 150 mM NaCl, 0.1 mM EDTA, 2 mM MgCl2, 1 mM DTT, 10% glycerol, pH 7.0, 22 C, about 0.1 nM probe, 25 ug/ml sonicated salmon sperm DNA
[3] = biological target: T2, MBP-AgrR D51A D51A (Cupriavidus metallidurans NA4) (UniProt Q1LMJ6); test: DNase I footprinting; conditions: 25 mM Na2HPO4, 150 mM NaCl, 0.1 mM EDTA, 2 mM MgCl2, 1 mM DTT, 10% glycerol, pH 7.0, 22 C, about 0.1 nM probe, 25 ug/ml sonicated salmon sperm DNA
T2 sequence: T1 sequence with D51A

[4] = biological target: T1, AgrR-His6 (Cupriavidus metallidurans NA4); test: DNase I footprinting; conditions: 25 mM Na2HPO4, 150 mM NaCl, 0.1 mM EDTA, 2 mM MgCl2, 1 mM DTT, 10% glycerol, pH 7.0, 22 C, about 0.1 nM probe, 25 ug/ml sonicated salmon sperm DNA
[5] = biological target: T2, MBP-AgrR D51A D51A (Cupriavidus metallidurans NA4); test: premodification binding interference (depurination, depyrimidination, DMS methylation); conditions: 25 mM Na2HPO4, 150 mM NaCl, 0.1 mM EDTA, 2 mM MgCl2, 1 mM DTT, 10% glycerol, pH 7.0, 22 C, about 0.1 nM probe, 25 ug/ml sonicated salmon sperm DNA
[6] = biological target: T2, MBP-AgrR D51A D51A (Cupriavidus metallidurans NA4); test: EMSA; conditions: 25 mM Na2HPO4, 150 mM NaCl, 0.1 mM EDTA, 2 mM MgCl2, 1 mM DTT, 10% glycerol, pH 7.0, 22 C, about 0.1 nM probe, 25 ug/ml sonicated salmon sperm DNA
[7] = biological target: T3, MBP-AgrR D51E D51E (Cupriavidus metallidurans NA4) (UniProt Q1LMJ6); test: EMSA; conditions: 25 mM Na2HPO4, 150 mM NaCl, 0.1 mM EDTA, 2 mM MgCl2, 1 mM DTT, 10% glycerol, pH 7.0, 22 C, about 0.1 nM probe, 25 ug/ml sonicated salmon sperm DNA
T3 sequence: T1 sequence with D51E

[8] = test system: MBP-AgrR D51A (Cupriavidus metallidurans NA4); test: EMSA; conditions: 25 ug/ml salmon sperm DNA; 25 mM Na2HPO4, 150 mM NaCl, 0.1 mM EDTA, 2 mM MgCl2, 1 mM DTT, 10% glycerol, pH 7.0, 22 C, about 0.1 nM probe, 25 ug/ml sonicated salmon sperm DNA
[9] = test system: AgrR-His6 (Cupriavidus metallidurans NA4); test: EMSA; conditions: 25 ug/ml salmon sperm DNA; 25 mM Na2HPO4, 150 mM NaCl, 0.1 mM EDTA, 2 mM MgCl2, 1 mM DTT, 10% glycerol, pH 7.0, 22 C, about 0.1 nM probe, 25 ug/ml sonicated salmon sperm DNA

For “AGGACGTTATCAGGGGTGGTGCGAGCCATGTCAAATTCCATTGATTCTTGTTCCCTGTCATTGAAGACCCTTTAGTCGCTACAGGGTCAAGCGCCTGCCGAAAATCTTTGGAGCGGCGCAAACATGACATGAACGTAATGTTTGCCCGCTCGCTAAACGCCTATAATCGCC (double strand) [czcI2 promoter]”, the binding [1] was “binds more weakly”.
“ATGGGTTACGGGTTGTTCACGGCTTGCTGGAGAGTCTGATCGGTCGTTGCGCGACCTTGGAATGCAGTCTAGAGGGCGGGTCCCGACGCGAACATGACCCTTGAATGACATTGATGTCATTTGTCCGAGGCAATGCGATACGATTGCCGGACAGGGTGCCGACCGGACAATGAATTCGGCCTTGGCGACAAATCCACGCCAAACAAC (double strand) [prsQ2 promoter/operator]” was tested, and the binding [2] was “binds” and the Kd [1] was 1600 nM.
For “ATTGGAGCGGCGAGTATAGAAATGCCGACATTTCGTTTCGATTGCGGCGAGATTACAGCCGCATCGTTCCGGGCGCGGGCAGGCAGAAAAGGAGGGCGCGAGAGAAGGGCGAGAGAAGGGCGAGGGAAGGGCGGGACTACCCCGCGCCTTGGGTGCGGGGCCTGTGTCGGGTCAATCGACCCAGTTCACCTT (double strand) [ompC-like promoter]”, the binding [1] was “binds more weakly”.
With “GTGTCCTCGTCAAACCAATGCACCCGGGCCCCGTGCCCGGAAAACGCCGCAAGTGTACGCCGCGGTCCGAACATGACGCGGACATTACCGGAATGTAATTTTTGGGTCATTAGGTGGTTACCGCGCCCTGACTACTCTGTGCTCGCTGCGCCATTTTGCTGGCGCGATTTCACAATGAGAA (double strand) [copA2-copR2 intergenic region]” the binding [2] was “binds”, the binding [3] was “binds” and the binding [4] was “binds”. For the same substance, the Kd [1] was 2100 nM.
In the case of “GTTTTCATCCTCAGCTGCACGGGCTCACAGCTCAAACGATGCCGCCGATGATAACGGCGCAGGTTCGCCTATTGGATGACAAGACTGTAATCGTTTCGTCCCCGTTTGAAAGGGTGTTGCGTACATAGAATCGCCGCTAATTCTGGATGACCGGCGCCGACAGCGCCTGGAGTGAACCATGTGGATTGTGC (double strand) [agrR control region]”, the binding [2] is reported as “binds”, the binding [5] is reported as “binds” and the binding [3] is reported as “binds”. For the same substance, the binding [4] was “binds”, the Kd [6] was 1600 nM and the Kd [1] was 16500 nM. The binding [7] was “binds more weakly”.
With “TAGAACTGCCTGTGTTGAGCAGTTGCAGCATTGTACTGCCTCTAACGGTTGCAAAATGGCTATATCAAGATGACATTCGTGCAATGTTCGCCAATTCGTGGCAAAGCTCCGCTAGTGTCTCGGTCTATATCCAGAACCTCGAATAATGGGCCGGTACCAA (double strand) [czcL-czcR2 intergenic region]” the Kd [1] was 26500 nM.
With “TGAAGCCGATCCATGACATAGTCTCCCTGTTCACCGGTGAATTTTTACACGATCCGGGTGATTTATTGTTGAAAGCACAACCAATCATTGTGGACGGCGCTATTTATTCATATCAGGGAAATGCCTAATATCGCACCATCTGATGCCGCATTGCAGCACCGGTCCTGGGACCACCGGCATCCTTGAATGTGAAAGAGGATTCCATCATG (double strand) [prsQ1 promoter]” the binding [1] was “no binding”.
Work on agrR control region yielded a Kd [8] of 1600 nM and a Kd [9] of 16500 nM.
copA2-copR2 intergenic region gave a Kd [9] of 2100 nM.
For czcL-czcR2 intergenic region, the Kd [9] was 26500 nM.
prsQ2 promoter/operator was tested, and the Kd [9] was 1600 nM.
